Results on 13 molecules are retold here after US20200369728A1, “PEPTIDOMIMETIC MACROCYCLES AND USES THEREOF” (Aileron Therapeutics, Inc., priority 2015, published 2020).

The target of test [1] is T1, MDMX (In-house, 40 kD) (UniProt O15151).
T1 sequence (looked up): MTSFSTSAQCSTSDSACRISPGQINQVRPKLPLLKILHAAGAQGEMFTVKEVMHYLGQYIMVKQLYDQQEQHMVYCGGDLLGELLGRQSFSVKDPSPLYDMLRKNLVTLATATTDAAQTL
Put plainly: competitive fluorescence polarization, displacement of FAM-labeled linear peptide from MDMX; grade decoded by the scale of Table 4.

In test [2] the target is MDM2 (In-house, 41 kD) (UniProt Q00987). Briefly: competitive fluorescence polarization, displacement of FAM-labeled linear peptide from MDM2; grade decoded by the scale of Table 4.
MDM2 (In-house, 41 kD) (UniProt Q00987), sequence (Q00987 1-125 limits assumed): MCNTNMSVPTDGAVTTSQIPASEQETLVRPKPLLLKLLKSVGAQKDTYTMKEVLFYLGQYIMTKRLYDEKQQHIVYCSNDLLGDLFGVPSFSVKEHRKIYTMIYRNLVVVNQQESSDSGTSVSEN
For test [3], the target named is T2, MDMX (In-house, 40 kD) (UniProt O15151 1-120, limits assumed).
T2 construct: Construct limits and any tag are unknown; also called MDM4
T2 sequence (looked up): T1 sequence (looked up)
Briefly: competitive fluorescence polarization, displacement of FAM-labeled linear peptide from MDMX; grade decoded by the scale of Table 4.

Test [4] deals with T3, MDM2 (In-house, 41 kD) (UniProt Q00987 1-125, limits assumed).
T3 construct: Construct limits and any tag are unknown; also called HDM2
T3 sequence (Q00987 1-125 limits assumed): as above
Briefly: competitive fluorescence polarization, displacement of FAM-labeled linear peptide from MDM2; grade decoded by the scale of Table 4.

Test [5] concerns the target T4, MDMX (In-house, 40 kD) (UniProt O15151 1-120, limits assumed).
T4 construct: also called MDM4
T4 sequence (looked up): T1 sequence (looked up)
Briefly: competitive fluorescence polarization vs FAM-labeled linear peptide; column IC50 (MDMX); grade means >1000 nM.

Test [6] deals with T4, MDMX (In-house, 40 kD). Briefly: competitive fluorescence polarization vs FAM-labeled linear peptide; column Ki (MDMX); grade means >1000 nM.

Several values for one entry are separate records, joined by “and”; a condition that tells them apart may be missing. Equal values may be shown once. Bridge positions count the residues as written; N and C are the ends. Square brackets hold non-standard residues; d marks the D form. R8 = C=CCCCCCC[C@@](C)(N)C(=O)O; Cba = N[C@@H](CC1CCC1)C(=O)O; S5 = C=CCCC[C@](C)(N)C(=O)O

With “SP755, Ac-tawyanf4CF3e$r5llr$r5a-NH2 (peptide)”, the IC50 was above 1000 nM with MDMX (In-house, 40 kD) [1] and below 10 nM with MDM2 (In-house, 41 kD) [2].
For “SP756, Ac-t$s8wyanf4CF3e$r5llr-NH2 (peptide)”, the IC50 in the test with MDMX (In-house, 40 kD) [1] was above 1000 nM; in the test with MDM2 (In-house, 41 kD) [2], > 10 nM and < 100 nM.
In the case of “SP757, Ac-tawy$s8nf4CF3ekll$r5a-NH2 (peptide)”, the concentration for half-maximal inhibition (IC50) in the test with MDMX (In-house, 40 kD) [1] was above 1000 nM; with MDM2 (In-house, 41 kD) [2], below 10 nM.
“SP758, Ac-tawya$s8f4CF3ekllr$r5a-NH2 (peptide)”: the IC50 is above 1000 nM with MDMX (In-house, 40 kD) [1]; > 10 nM and < 100 nM in the test with MDM2 (In-house, 41 kD) [2].

B1: SP602, Ac-LTF$r8GlaYWAQL$AAAAAa-NH2 (peptide)
peptide: LTFAEYWAQLAAAAAAA
modifications: not fully specified; N-terminal acetyl; $r8 at 4 crosslinked by all-carbon olefin staple to $ at 11; Gla at 5 (abbreviation not defined in the filing); D-Ala (a) at C-terminus; C-terminal amide
notes: stapled peptidomimetic macrocycle
As for B1, the Ki with MDMX (In-house, 40 kD) [3] is at most 10 nM; with MDM2 (In-house, 41 kD) [4] it was at most 10 nM.

B2: SP600, Ac-LTF$r8QYWAQL$AAAAAa-NH2 (peptide)
peptide: LTFAQYWAQLAAAAAAA
modifications: not fully specified; N-terminal acetyl; $r8 (alpha-Me R8-octenyl-alanine) at 4 crosslinked by all-carbon olefin staple to $ (alpha-Me S5-pentenyl-alanine) at 11; D-Ala (a) at C-terminus; C-terminal amide
notes: as for B1
B2: the Ki in the test with MDMX (In-house, 40 kD) [3] is at most 10 nM; in the test with MDM2 (In-house, 41 kD) [4], at most 10 nM.

B3: SP603, Ac-LTF$r8F4gYWAQL$AAAAAa-NH2 (peptide)
peptide: LTFAFYWAQLAAAAAAA
modifications: not fully specified; N-terminal acetyl; $r8 at 4 crosslinked by all-carbon olefin staple to $ at 11; F4g at 5 (abbreviation not defined in the filing); D-Ala (a) at C-terminus; C-terminal amide
notes: as for B1
For B3, the inhibitory constant (Ki) with MDMX (In-house, 40 kD) [3] is at most 10 nM; in the test with MDM2 (In-house, 41 kD) [4], at most 10 nM.

B4: SP252 (peptide)
peptide: LTAAEYWAQAASAA
modifications: not fully specified; N-terminal acetyl (Ac); $r8 = alpha-Me R8-octenyl-alanine and $ = alpha-Me S5-pentenyl-alanine joined by an all-carbon crosslinker; Cba = cyclobutyl alanine; C-terminal amide (NH2)
notes: also called Ac-LTA$r8EYWAQCba$SAA-NH2
In the case of B4, the IC50 in the test with MDMX (In-house, 40 kD) [5] was above 1000 nM. For the same molecule, in the test with MDMX (In-house, 40 kD) [6], the Ki is above 1000 nM.

B5: SP712, Ac-LTF$r8HYWAQCba$SAA-NH2 (iso2) (peptide)
peptide: LTFAHYWAQAASAA
modifications: not fully specified; N-terminal acetyl; $r8 at 4 crosslinked by all-carbon olefin staple to $ at 11; Cba (cyclobutyl alanine) at 10; C-terminal amide; single isomer iso2
notes: stapled peptidomimetic macrocycle, isomer iso2
Regarding B5, the Ki was at most 10 nM with MDMX (In-house, 40 kD) [3] and at most 10 nM with MDM2 (In-house, 41 kD) [4].

B6: SP713, Ac-LTF$r8SYWAQCba$SAA-NH2 (iso2) (peptide)
peptide: LTFASYWAQAASAA
modifications: not fully specified; N-terminal acetyl; $r8 at 4 crosslinked by all-carbon olefin staple to $ at 11; Cba (cyclobutyl alanine) at 10; C-terminal amide; single isomer iso2
notes: as for B5
Turning to B6, the Ki is at most 10 nM in the test with MDMX (In-house, 40 kD) [3] and at most 10 nM with MDM2 (In-house, 41 kD) [4].

B7: SP250 (peptide)
peptide: ETFAEYWAQAASAA
modifications: not fully specified; N-terminal Pam cap (abbreviation not explained in the filing); $r8 = alpha-Me R8-octenyl-alanine and $ = alpha-Me S5-pentenyl-alanine joined by an all-carbon crosslinker; Cba = cyclobutyl alanine; C-terminal amide (NH2)
notes: also called Pam-ETF$r8EYWAQCba$SAA-NH2
As for B7, the IC50 with MDMX (In-house, 40 kD) [5] was above 1000 nM. This molecule came in with a Ki with MDMX (In-house, 40 kD) [6] above 1000 nM.

B8: SP716, Ac-LTF$r8EYWAQCba$AAA-NH2 (iso2) (peptide)
peptide: Ac-LTF[R8]EYWAQ[Cba][S5]AAA-NH2
modifications: staple 4-11; also: single isomer iso2
notes: as for B5
On to B8, for which the inhibition constant (Ki) with MDMX (In-house, 40 kD) [3] is at most 10 nM; with MDM2 (In-house, 41 kD) [4] it was at most 10 nM.

B9: SP615, Ac-LTF$r8EpYWAQL$AAAAAa-NH2 (peptide)
peptide: LTFAEYWAQLAAAAAAA
modifications: not fully specified; N-terminal acetyl; $r8 at 4 crosslinked by all-carbon olefin staple to $ at 11; pY at 6 (abbreviation not defined in the filing); D-Ala (a) at C-terminus; C-terminal amide
For B9, the Ki in the test with MDMX (In-house, 40 kD) [1] is below 10 nM; in the test with MDM2 (In-house, 41 kD) [2], below 10 nM.
